The target in assay [1] is human CD3 expressed in Jurkat cells (human) (UniProt P07766). The assay is described as follows: cell-based or functional assay.
Assay [2] concerns the target human FcεR1α expressed on cells (human) (UniProt P12319). The assay is described as follows: flow cytometry, 70 nM antibody on HEK293/hFcεR1α/hFcεR1β/hFcεR1γ cells pre-incubated with 70 nM human IgE.
For assay [3] the target is unchanged. Briefly: flow cytometry, 70 nM antibody on HEK293/hFcεR1α/hFcεR1β/hFcεR1γ cells, No IgE.
For assay [4], the target named is monkey (cynomolgus) FcεR1α expressed on cells (cynomolgus). The assay is described as follows: flow cytometry, 70 nM antibody on HEK293/mfFcεR1α/hFcεR1β/hFcεR1γ cells pre-incubated with 70 nM human IgE.
Assay [5] concerns the target human CD3 expressed in Jurkat cells (human) (UniProt P07766). Briefly: flow cytometry, 70 nM antibody on Jurkat/NFAT-luc cells, No IgE.
For assay [6], the target named is monkey (cynomolgus) FcεR1α expressed on cells (cynomolgus). The assay is described as follows: flow cytometry, 70 nM antibody on HEK293/mfFcεR1α/hFcεR1β/hFcεR1γ cells, No IgE.
In assay [7] the target is mfFcεR1α.MMH (cynomolgus (Macaca fascicularis)). Briefly: SPR (Biacore 8k), antibody captured on anti-human Fc, mfFcεR1α.MMH injected, 25°C. (In SPR one partner is held on a chip, and binding of the other changes the refractive index at the surface.)
Assay [8] has the same target. The assay is described as follows: SPR (Biacore 8k), antibody captured on anti-human Fc, mfFcεR1α.MMH injected, 37°C.
Assay [9] deals with hFcεR1α.MMH (human). Briefly: SPR (Biacore 8k), antibody captured on anti-human Fc, hFcεR1α.MMH injected, 25°C.
The target in assay [10] is hFcεR1α.MMH (human). The assay is described as follows: SPR (Biacore 8k), antibody captured on anti-human Fc, hFcεR1α.MMH injected, 37°C.

Sequence of human CD3 expressed in Jurkat cells (human) (P07766 23-207 limits assumed, chain 1 of 4): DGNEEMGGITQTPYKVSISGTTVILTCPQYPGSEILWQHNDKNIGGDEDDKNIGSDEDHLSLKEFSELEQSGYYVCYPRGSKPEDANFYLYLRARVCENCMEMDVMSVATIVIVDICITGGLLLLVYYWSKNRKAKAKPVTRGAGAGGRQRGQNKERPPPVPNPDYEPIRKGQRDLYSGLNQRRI
Sequence of human CD3 expressed in Jurkat cells (human) (chain, as listed by the source limits assumed, chain 2 of 4): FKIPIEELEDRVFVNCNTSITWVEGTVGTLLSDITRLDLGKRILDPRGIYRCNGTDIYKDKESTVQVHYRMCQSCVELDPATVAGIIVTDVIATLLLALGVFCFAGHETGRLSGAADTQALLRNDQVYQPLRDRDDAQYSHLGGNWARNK
Sequence of human CD3 expressed in Jurkat cells (human) (chain, as listed by the source limits assumed, chain 3 of 4): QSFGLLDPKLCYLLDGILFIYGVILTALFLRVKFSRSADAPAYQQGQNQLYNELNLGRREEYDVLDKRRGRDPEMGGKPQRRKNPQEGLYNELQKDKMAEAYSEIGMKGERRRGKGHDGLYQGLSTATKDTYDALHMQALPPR
Sequence of human CD3 expressed in Jurkat cells (human) (chain, as listed by the source limits assumed, chain 4 of 4): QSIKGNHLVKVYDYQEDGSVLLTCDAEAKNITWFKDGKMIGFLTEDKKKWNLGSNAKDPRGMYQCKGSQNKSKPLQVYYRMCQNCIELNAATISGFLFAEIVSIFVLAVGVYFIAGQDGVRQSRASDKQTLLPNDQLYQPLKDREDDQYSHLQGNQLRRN
Sequence of human FcεR1α expressed on cells (human) (P12319 26-257): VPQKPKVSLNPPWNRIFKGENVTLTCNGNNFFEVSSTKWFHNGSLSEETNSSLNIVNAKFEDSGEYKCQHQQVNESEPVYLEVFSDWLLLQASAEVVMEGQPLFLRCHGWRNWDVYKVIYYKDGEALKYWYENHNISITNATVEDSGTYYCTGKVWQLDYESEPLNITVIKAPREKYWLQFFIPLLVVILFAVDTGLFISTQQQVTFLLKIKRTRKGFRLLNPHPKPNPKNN
Sequence of hFcεR1α.MMH (human) (chain, as listed by the source limits assumed): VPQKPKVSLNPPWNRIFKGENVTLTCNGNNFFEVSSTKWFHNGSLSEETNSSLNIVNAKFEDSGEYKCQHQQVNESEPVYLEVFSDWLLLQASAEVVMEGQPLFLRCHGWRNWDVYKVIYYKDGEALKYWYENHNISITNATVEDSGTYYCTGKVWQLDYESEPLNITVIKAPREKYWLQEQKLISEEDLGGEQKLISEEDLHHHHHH
Sequence of mfFcεR1α.MMH (cynomolgus (Macaca fascicularis)) (chain, as listed by the source limits assumed): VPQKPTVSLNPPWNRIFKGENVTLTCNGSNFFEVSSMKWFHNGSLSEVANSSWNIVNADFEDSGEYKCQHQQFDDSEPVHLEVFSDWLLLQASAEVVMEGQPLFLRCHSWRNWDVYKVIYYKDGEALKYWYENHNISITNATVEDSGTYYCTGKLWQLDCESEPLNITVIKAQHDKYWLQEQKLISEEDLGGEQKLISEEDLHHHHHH

Human IgG4 Control (antibody): the Fold Activation, Jurkat/NFAT-luc with HEK293/hFcεR1α/hFcεR1β/hFcεR1γ cells, 10 nM IgE in [1] worked out at 1 fold. The Fold Activation, Jurkat/NFAT-luc with HEK293/hFcεR1α/hFcεR1β/hFcεR1γ cells, No IgE in [1] worked out at 1 fold. Also, the Binding Ratio (MFI of Treated/MFI of Unstained) in assay [2], in assay [3], in [4], in assay [5] and in [6] was 1 each time.

In assay [1], Human IgG4 Stealth Control (antibody) yielded a Fold Activation, Jurkat/NFAT-luc with HEK293/hFcεR1α/hFcεR1β/hFcεR1γ cells, 10 nM IgE of 1 fold. This substance returned a Fold Activation, Jurkat/NFAT-luc with HEK293/hFcεR1α/hFcεR1β/hFcεR1γ cells, No IgE in assay [1] of 1 fold. The Binding Ratio (MFI of Treated/MFI of Unstained) was found to be 1 in assay [2]; 1 in assay [3]; 1 in [4]; 2 in [5]; 1 in assay [6].

For the substance Isotype Control mAb (antibody), the 600 nM mfFceR1a.MMH Bound (RU) in [7] and in assay [8] was -9 RU in each case. Also, the 600 nM hFcεR1α.MMH Bound (RU) in [9] is -5 RU; in [10], -2 RU.

These data come from patent US20200062844A1.
